In publication PMC5286426, “The Calcium-Dependent Switch Helix of L-Plastin Regulates Actin Bundling” (Scientific Reports, 2017) one finds Kd data, which are given here for 1 molecule.

For this assay, the target named is T1, L-plastin EF construct (EF-hand headpiece domain, H5 region omitted) (human).
T1 construct: human L-plastin (LPL), EF construct: the two N-terminal EF-hand motifs (helices 1-4, residues 8-79) with the H5 region omitted; holds Cys42; 15N-labelled in the NMR experiment; immobilised by Cys42 in SPR; also called LPL-EF; EF domain of LPL; source: E. coli BL21 (DE3), purified (IMAC, His-tag cleaved with TEV protease); not shown: His-tag, N-terminal, cleaved
In words: SPR; EF construct immobilised by its sole cysteine (Cys42) on a CM5 chip by thiol coupling; peptides injected; BIAcore X100; 10 mM Tris-HCl pH 7.5, 150 mM KCl, 1 mM CaCl2, 0.005% Tween-20; 30 uL/min, contact 1 min, 25 °C. To be noted: both partners purified. Background: Surface plasmon resonance follows binding to a sensor surface in real time, without labels.

B1: CaMKI peptide (CaM-binding peptide) (peptide)
chain: AKSKWKQAFNATAVVRHMRKLQ
modifications: Limits are not given; 299-320 is the conventional 22-residue CaMKI calmodulin-binding peptide. Terminal modifications are not stated.
Usually Kd stands for the concentration at which binding is half-saturated. Regarding B1, binding was characterised by a dissociation constant (Kd) of 3.27 µM.
